US20050163770A1 (CONNEX, published 2005)
Ends that are not written are not given here.

Columns and labels:
[1] = target: T1, human zeta-chain on the surface of CD8+ T-lymphocytes and NK-cells (human, UniProt P20963 22-164); test: flow cytometry on human PBMC gated for CD8+ T-lymphocytes and NK-cells
T1 construct: whole, on cells; also called extracellular domain of the human zeta-chain on intact cells
Description: FIG. 3: Flowcytometry-analysis of the zeta-chain specific binding activity of the 2-B-5 antibody on the surface of CD8⁺-T-lymphocytes and NK-cells. 100.000 mononucleated cells from peripheral blood of two different healthy donors were incubated with undiluted cell culture supernatant of the 2-B-5 hybridoma. Bound zeta-chain specific rat antibody was detected by a fluorescein (FITC) conjugated goat-anti-rat Ig (IgG+IgM) antibody diluted 1:100 in PBS. Triple color fluorescence analysis was carried out by applying a positive gate for CD8⁺ (Tricolor) and a negative gate for CD16⁺ (PE) cells thus allowing the detection of FITC-mediated fluorescence (filled lines) exclusively attributed to CD8⁺-T-lymphocytes (phenotype: CD8⁺, CD16⁻) without any contaminating signals from CD8⁺-NK-cells. Similarly, triple color fluorescence analysis was carried out by applying a positive gate for CD56⁺-(PE) and a negative gate for CD3⁺-cells (tricolor) thus allowing the detection of FITC-mediated fluorescence (filled lines) exclusively attributed to NK-cells (phenotype: CD56⁺, CD3⁻) without any contaminating signals from CD56⁺-T-lymphocytes. As isotype control (broken lines) culture supernatant of an antibody with the same isotype (rat IgM) but irrelevant specificity was used. […] Cells were analyzed by flowcytometry on a FACS-scan (Becton Dickinson).

[2] = target: T2, native zeta-chain from the lysate of CD8+ T-lymphocytes (human, UniProt P20963 22-164); test: sandwich ELISA: zeta-chain from lysate captured by the antibody to amino acids 144-163, 2-B-5 at 1 ug/ml
T2 construct: Endogenous protein in a detergent lysate, captured on the plate by an antibody to the C-terminus; also called zeta-chain molecules from the T-cell lysate
T2 sequence (P20963 22-164 limits assumed): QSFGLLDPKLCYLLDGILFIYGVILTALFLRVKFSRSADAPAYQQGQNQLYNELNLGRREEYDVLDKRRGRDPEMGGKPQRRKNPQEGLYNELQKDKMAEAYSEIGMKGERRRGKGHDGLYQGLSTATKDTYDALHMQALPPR
Description: FIG. 4: Results of a Sandwich-ELISA confirming the reactivity of antibody 2-B-5 with native zeta-chain present in the lysate of the CD8⁺-T-cell lymphocytes. A zeta-chain specific antibody, which recognizes the amino acids 144-163 at the carboxy-terminus of the human zeta chain was coated for 12 hours to the wells of a 96 U-bottom plate, followed by blockade for one hour at room temperature with PBS/3% BSA. Subsequently the lysate of CD8⁺-cells was added undiluted and in several dilutions and incubated for one hour at room temperature. As negative control, the wells were incubated with PBS instead of the cell lysate. […] Bound 2-B-5 antibody was detected with a biotinylated mouse-anti-rat IgM antibody followed by an Avidin-peroxidase-conjugate. […] The colored precipitate was measured at 405 nm using an ELISA-reader.
A zeta-chain specific antibody (Santa Cruz Biotechnology, Cat-No 1124), which recognizes the amino acids 144-163 at the carboxy-terminus of the zeta chain was coated to wells of a 96 U-bottom plate (Nunc, maxisorb) at a concentration of 5 μg/ml. […] Bound 2-B-5 antibody was detected with a biotinylated mouse-anti-rat IgM antibody (Zymed, San Francisco, Calif., USA; Cat-No 03-9840; working concentration 400 ng/ml) followed by an Avidin-peroxidase-conjugate (Dako, Hamburg; Code-No P 03347; working concentration 1 μg/ml). […]

[3] = target: T3, zeta-peptide-BSA-conjugate (not fully specified (residue 11); also: C-terminal Cys thiol coupled to BSA); test: ELISA of rat hybridoma supernatants (diluted 1:1) on immobilized zeta-peptide-BSA-conjugate
T3 construct: also called zeta-peptide conjugated to bovine serum albumin
T3 peptide: QSFGLLDPKLC

Measured: binding result

T1 sequence (P20963 22-164): as the sequence (P20963 22-164 limits assumed) above

B1: rat monoclonal anti-zeta-chain antibody 2-B-5 (rat IgM) (antibody, V domains shown)
VH: QVQLQQSGAELVKPGSSVKISCKASGYTFTSYDMHWIKQQPGNGLEWIGWIYPGNGNTKYNQKFNGKATLTADKSSSTAYMQLSSLTSEDSAVYFCARDWHYYSSYIRPFAYWGQGTLVTVSS
VL: DIQMTQSPASLSASPEEIVTITCQASQDIGNWLAWYQQKPGKSPQLLIYSATSLADGIPSRFSGSRSGTQYSLKISRLQVEDTGIYYCLQRYSNPNTFGAGTKLELK
notes: Rat IgM with kappa light chain; Used as hybridoma culture supernatant or purified by ion exchange chromatography; The constant regions are rat mu and kappa; also called 2-B-S; 2-B-5 hybridoma antibody
binds: all assays above
